The RNAGym collection of RNA variant scans (doi:10.7554/elife.90254)

B1: LINE1-full (parent)
chain: UACGUAGGUGGUUUUCCCCUGAUAGUGCUAAGGGGGCCUGGAAGUUUGGACUGGGCAGAGCUCAACACAGCGUGGCAAAGUGGCUGUGGCUAGACUGCCUCUCUGGAUUCCUCGUCACUCAGCAGGGCAUCUCUGAGAGAAAUGCC

Variants of: B1
Test: self-cleavage, relative activity (ratio to wild type); higher = more cleavage; in vitro, sequencing; the parent is a self-cleaving ribozyme

Which self-cleavage does the source give for UACGUAGGUGGUUUUCCCCUGAUAGUGCUAAGGGGGCCUGGAAGUUUGGACUGGGCAGAGCUCAACACAGCGUGGCAAAGUGGCUGUGGCUAGACUGCCUCUCUGGAUUCCUCGUUACUCAGCACGGCAUCUCUGAGAGAAAUGCC [C116U G125C] here?
The self-cleavage was 1.54.

Which self-cleavage does the source give for UACGUAGGUGGUUUUCCCCUGAUAGUGCUAAGGGGGCCUGGAAGUUUGGACUGGGCAGAGCUCAACACAGCGUGGCAAAGUGGCUGUGGCUAGACUGCCUCUCUGGAUUCCUCGUUACUCAGCAGGGCAUCCCUGAGAGAAAUGCC [C116U U132C] here?
The self-cleavage was 0.91.

For UACGUAGGUGGUUUUCCCCUGAUAGUGCUAAGGGGGCCUGGAAGUUUGGACUGGGCAGAGCUCAACACAGCGUGGCAAAGUGGCUGUGGCUAGACUGCCUCUCUGGAUUCCUCGUUACUCAGCAGGGCAUCUCCGAGAGAAAUGCC [C116U U134C], which self-cleavage is on record?
Its self-cleavage is 1.11.

Which self-cleavage does the source give for UACGUAGGUGGUUUUCCCCUGAUAGUGCUAAGGGGGCCUGGAAGUUUGGACUGGGCAGAGCUCAACACAGCGUGGCAAAGUGGCUGUGGCUAGACUGCCUCUCUGGAUUCCUCGUCCCUCAGCAGGGCAUCUCUGAGAGAAAUGCC [A117C] here?
Its self-cleavage is 1.75.

Which self-cleavage does the source give for UACGUAGGUGGUUUUCCCCUGAUAGUGCUAAGGGGGCCUGGAAGUUUGGACUGGGCAGAGCUCAACACAGCGUGGCAAAGUGGCUGUGGCUAGACUGCCUCUCUGGAUUCCUCGUCCCUCUGCAGGGCAUCUCUGAGAGAAAUGCC [A117C A121U] here?
The self-cleavage was 2.02.

With UACGUAGGUGGUUUUCCCCUGAUAGUGCUAAGGGGGCCUGGAAGUUUGGACUGGGCAGAGCUCAACACAGCGUGGCAAAGUGGCUGUGGCUAGACUGCCUCUCUGGAUUCCUCGUCCCUCAGCGGGGCAUCUCUGAGAGAAAUGCC [A117C A124G] as the variant, how does the self-cleavage read?
The self-cleavage was 1.7.

Which self-cleavage does the source give for UACGUAGGUGGUUUUCCCCUGAUAGUGCUAAGGGGGCCUGGAAGUUUGGACUGGGCAGAGCUCAACACAGCGUGGCAAAGUGGCUGUGGCUAGACUGCCUCUCUGGAUUCCUCGUCCCUCAGCUGGGCAUCUCUGAGAGAAAUGCC [A117C A124U] here?
The self-cleavage was 1.14.

Which self-cleavage does the source give for UACGUAGGUGGUUUUCCCCUGAUAGUGCUAAGGGGGCCUGGAAGUUUGGACUGGGCAGAGCUCAACACAGCGUGGCAAAGUGGCUGUGGCUAGACUGCCUCUCUGGAUUCCUCGUCCCUCAGCAGGGCUUCUCUGAGAGAAAUGCC [A117C A129U] here?
Its self-cleavage is 1.

For UACGUAGGUGGUUUUCCCCUGAUAGUGCUAAGGGGGCCUGGAAGUUUGGACUGGGCAGAGCUCAACACAGCGUGGCAAAGUGGCUGUGGCUAGACUGCCUCUCUGGAUUCCUCGUCCCUCAGCAGGGCAUCUCUGAGAGAGAUGCC [A117C A141G], which self-cleavage is on record?
Its self-cleavage is 2.57.

With UACGUAGGUGGUUUUCCCCUGAUAGUGCUAAGGGGGCCUGGAAGUUUGGACUGGGCAGAGCUCAACACAGCGUGGCAAAGUGGCUGUGGCUAGACUGCCUCUCUGGAUUCCUCGUCCCUCAGCAGGGCAUCUCUGAGAGAAGUGCC [A117C A142G] as the variant, how does the self-cleavage read?
Its self-cleavage is 1.8.

Which self-cleavage does the source give for UACGUAGGUGGUUUUCCCCUGAUAGUGCUAAGGGGGCCUGGAAGUUUGGACUGGGCAGAGCUCAACACAGCGUGGCAAAGUGGCUGUGGCUAGACUGCCUCUCUGGAUUCCUCGUCCCUCAGCAGAGCAUCUCUGAGAGAAAUGCC [A117C G126A] here?
Its self-cleavage is 1.64.

For UACGUAGGUGGUUUUCCCCUGAUAGUGCUAAGGGGGCCUGGAAGUUUGGACUGGGCAGAGCUCAACACAGCGUGGCAAAGUGGCUGUGGCUAGACUGCCUCUCUGGAUUCCUCGUCCCUCAGCAGGGCAUCUCUGAGAGAAAUACC [A117C G144A], which self-cleavage is on record?
The self-cleavage was 1.79.

For UACGUAGGUGGUUUUCCCCUGAUAGUGCUAAGGGGGCCUGGAAGUUUGGACUGGGCAGAGCUCAACACAGCGUGGCAAAGUGGCUGUGGCUAGACUGCCUCUCUGGAUUCCUCGUCCCGCAGCAGGGCAUCUCUGAGAGAAAUGCC [A117C U119G], which self-cleavage is on record?
The self-cleavage was 2.43.

With UACGUAGGUGGUUUUCCCCUGAUAGUGCUAAGGGGGCCUGGAAGUUUGGACUGGGCAGAGCUCAACACAGCGUGGCAAAGUGGCUGUGGCUAGACUGCCUCUCUGGAUUCCUCGUCCCUCAGCAGGGCACCUCUGAGAGAAAUGCC [A117C U130C] as the variant, how does the self-cleavage read?
Its self-cleavage is 2.3.

With UACGUAGGUGGUUUUCCCCUGAUAGUGCUAAGGGGGCCUGGAAGUUUGGACUGGGCAGAGCUCAACACAGCGUGGCAAAGUGGCUGUGGCUAGACUGCCUCUCUGGAUUCCUCGUCCCUCAGCAGGGCAUCUCAGAGAGAAAUGCC [A117C U134A] as the variant, how does the self-cleavage read?
Its self-cleavage is 1.53.

Which self-cleavage does the source give for UACGUAGGUGGUUUUCCCCUGAUAGUGCUAAGGGGGCCUGGAAGUUUGGACUGGGCAGAGCUCAACACAGCGUGGCAAAGUGGCUGUGGCUAGACUGCCUCUCUGGAUUCCUCGUCCCUCAGCAGGGCAUCUCUGAGAGAAAAGCC [A117C U143A] here?
The self-cleavage was 1.38.

Which self-cleavage does the source give for UACGUAGGUGGUUUUCCCCUGAUAGUGCUAAGGGGGCCUGGAAGUUUGGACUGGGCAGAGCUCAACACAGCGUGGCAAAGUGGCUGUGGCUAGACUGCCUCUCUGGAUUCCUCGUCGCUCAGCAGGGCAUCUCUGAGAGAAAUGCC [A117G] here?
Its self-cleavage is 1.49.

With UACGUAGGUGGUUUUCCCCUGAUAGUGCUAAGGGGGCCUGGAAGUUUGGACUGGGCAGAGCUCAACACAGCGUGGCAAAGUGGCUGUGGCUAGACUGCCUCUCUGGAUUCCUCGUCGCUCCGCAGGGCAUCUCUGAGAGAAAUGCC [A117G A121C] as the variant, how does the self-cleavage read?
Its self-cleavage is 1.78.

For UACGUAGGUGGUUUUCCCCUGAUAGUGCUAAGGGGGCCUGGAAGUUUGGACUGGGCAGAGCUCAACACAGCGUGGCAAAGUGGCUGUGGCUAGACUGCCUCUCUGGAUUCCUCGUCGCUCGGCAGGGCAUCUCUGAGAGAAAUGCC [A117G A121G], which self-cleavage is on record?
Its self-cleavage is 1.38.

For UACGUAGGUGGUUUUCCCCUGAUAGUGCUAAGGGGGCCUGGAAGUUUGGACUGGGCAGAGCUCAACACAGCGUGGCAAAGUGGCUGUGGCUAGACUGCCUCUCUGGAUUCCUCGUCGCUCUGCAGGGCAUCUCUGAGAGAAAUGCC [A117G A121U], which self-cleavage is on record?
The self-cleavage was 1.86.
